Tests used:
cortical slice culture = assay: Cal-Light test in cortical slice culture (EGFP reporter); format: cell-based; settings: further increase of neuronal activity by bicuculine application
Description: FIG. 18. Cal-Light test in cortical slice culture. AAV expressing Cal-Light constructs and EGFP reporter were infected to cortical slice culture at DIV3 (Days in vitro). […] Examples of action potentials were plotted at the top left panel. Electrical stimulation reliably triggered action potentials measured in layer 2/3 pyramidal neurons. Two days later, slices were fixed and images were taken by confocal microscopy. […] Blue light or high frequency stimuli alone was not able to increase the level of EGFP expression.
[…] Cortical slice culture were made at postnatal day 3 and AAV expressing Cal-Light constructs including an EGFP reporter were infected to slices at DIV 3 (Days in vitro). After 12 days of expression, a bipolar stimulation electrode was placed in layer 2/3. […] This stimulation protocol was repeated 30 times, resulting in triggering about 300 action potentials in total. Two days later, slices were fixed and gene expression pattern was imaged by confocal microscopy.

[1] = tested on: hippocampal culture neurons; assay: Cal-Light test in dissociated hippocampal culture neurons (EGFP reporter); format: cell-based, rat
HEK293T cells [2] = assay: EGFP expression reporter assay of BLITz constructs; format: cell-based; settings: dark vs blue light
Description: FIG. 1: Development of BLITz system. (a) Schematic drawing of BLITz proteins and simple diagram of light-induced gene expression. The major protein body, TM-CIBN-TEV-N-AsLOV2-TEVseq-TetR-VP16 (tTA), is targeted to a membrane with a transmembrane domain (TM). CRY2PHR-TEV-C is localized in the cytosol. Blue light causes interaction of CRY2PHR with CIBN, and TEV-C and TEV-N subsequently interact with each other. At the same time, TEVseq is unmasked due to conformational changes of AsLOV2 Jα-helix. When these two light-dependent processes are satisfied, TEVseq cleaves TetR-VP16, which translocates to the nucleus and causes targeted gene expression. (b) Design of TEVseq insertion into Jα-helix. […]
HEK293T cells were grown in high glucose Dulbecco's Modified Eagle Medium (DMEM) (Gibco, CA, USA) containing 10% fetal bovine serum (Cat #10438-018, Gibco) and 1% penicillin-streptomycin (Invitrogen, NY, USA). […] After 0.25% trypsin (Cat #25200, Gibco) treatment for 2 min, detached cells were collected and the total cell numbers were counted. […]
Blue light was illuminated by 465 nm wavelength blue LED array (LED wholesalers, Hayward, Calif., USA) that was controlled by a high-accuracy digital electronic timer (Model 451, GraLab, Centerville, Ohio, USA). […] In the experimental setup, the power of blue light at the specimen was 1.7 mW, measured by a power meter (PM100D, ThorLabs, Newton, N.J., USA). […]

HEK293T cells [3] = assay: SEAP chemiluminescent assay of BLITz constructs, light-induced gene expression; format: cell-based; settings: for light-induced gene expression: blue light; for background (baseline) gene expression level: dark state
Protocol: HEK293T cells were grown in high glucose Dulbecco's Modified Eagle Medium (DMEM) (Gibco, CA, USA) containing 10% fetal bovine serum (Cat #10438-018, Gibco) and 1% penicillin-streptomycin (Invitrogen, NY, USA). Cells were incubated at 37° C. and under 10% CO2 conditions. For the experiment, all dishes and coverslip were pre-coated with a 1 mg/ml Poly-D-Lysine hydrobromide (Cat #P0899, Sigma-Aldrich, St. Louis, Mo., USA) solution for 2 hrs. After 0.25% trypsin (Cat #25200, Gibco) treatment for 2 min, detached cells were collected and the total cell numbers were counted. Dissociated cells were plated at 2×10^5 cells per 12 mm coverslip. 24 hrs later, DNA plasmid vectors were transfected using the calcium phosphate transfection kit (Clontech, CA, USA). The mixture of the DNA solution was slowly added into 2× Hepes Buffered Saline. After 1 hr incubation, precipitated solutions were added into each well.
Blue light was illuminated by 465 nm wavelength blue LED array (LED wholesalers, Hayward, Calif., USA) that was controlled by a high-accuracy digital electronic timer (Model 451, GraLab, Centerville, Ohio, USA). The LED array was installed inside the 37° C. and 10% CO2 incubator. One transparent blank plate with 2 cm height was inserted between the LED source and the sample to inhibit potential undesirable heating caused by the direct contact of the LED. In the experimental setup, the power of blue light at the specimen was 1.7 mW, measured by a power meter (PM100D, ThorLabs, Newton, N.J., USA). To make a dark condition, all lights were prevented by wrapping culture plates with an aluminum foil, and all experimental procedures were carried out under dim red light.
For the quantification of gene-expression levels, a secreted embryonic alkaline phosphatase (SEAP) chemiluminescent assay was used. All reagents for the SEAP assay were purchased from InvivoGen (San Diego, Calif., USA). 40 μl of sample was collected from the medium of each well and transferred into 96-wells plate. Samples were pre-heated in a 60° C. incubator for 10 m to inhibit the activity of endogenous alkaline phosphatase. All mixtures were added into a single master tube including SEAP substrates and L-homoarginine. The mixed solutions were carefully added into each sample onto 96-wells plate without bubbles. The chemiluminescence of each sample was measured by a micro-plate reader (SpectraMax Plus 384, Molecular Devices, Sunnyvale, Calif., USA) at 37° C. at 405 nm. Assays were made at every 30 s for 2 hrs. All data and the calculation of Vmax were acquired by a SoftMax Pro 5.4.1 (Molecular Devices).
Thus, to prevent access by TEV protease in the dark state, but to allow complete access upon blue light illumination, the C-terminal region of the Jα-helix on AsLOV2 with the TEVseq was modified (FIG. 1a, b). […]

CN1CCc2cc3c(cc2[C@H]1[C@@H]1OC(=O)c2c1ccc1c2OCO1)OCO3 [bicuculine]
EGFP expression (cortical slice culture): significant increase

NC1=N[C@H](O)[C@H]2[C@H]3O[C@]4(O)O[C@@H]([C@@H](O)[C@@]2(N1)[C@@H]4O)[C@]3(O)CO [TTX, tetrodotoxin]
reporter EGFP gene expression level [1]: kept low

B1: BLITz-1: AsLOV2 Jα-helix C-terminal deletion variant with inserted TEV cleavage sequence, in TM-CIBN-TEV-N-AsLOV2-TEVseq-tTA fusion protein (protein)
chain: EFLATTLERIEKNFVITDPRLPDNPIIFASDSFLQLTEYSREEILGRNCRFLQGPETDRATVRKIRDAIDNQTEVTVQLINYTKSGKKFWNVFHLQPMRDYKGDVQYFIGVQLDGTERLHGAAEREAVCLIKKTAFQIA
modifications: BLITz-1 AsLOV2 (1-139 A.A.)
EGFP signals (HEK293T cells [2]): detected only when blue light was illuminated
light-induced gene expression (HEK293T cells [3]): high
background (baseline) gene expression level (HEK293T cells [3]): completely abolished

B2: BLITz-6: AsLOV2 Jα-helix C-terminal deletion variant with TEVseq; selected for the neuromodulation mapping system (protein)
chain: EFLATTLERIEKNFVITDPRLPDNPIIFASDSFLQLTEYSREEILGRNCRFLQGPETDRATVRKIRDAIDNQTEVTVQLINYTKSGKKFWNVFHLQPMRDYKGDVQYFIGVQLDGTERLHGAAEREAVCLIKKTAFQI
modifications: BLITz-6 AsLOV2 (1-138 A.A.)
EGFP signals (HEK293T cells [2]): detected only when blue light was illuminated
light-induced gene expression (HEK293T cells [3]): high
background (baseline) gene expression level (HEK293T cells [3]): completely abolished

— patent US11325952B2, “Light-gated signaling modulation” (Korea University Research and Business Foundation, priority 2016, dated 2022)
